Results: article PMC9723645 (Nucleic Acids Research, 2022)

Key:
[1] = target: recombinant mouse artemin protein (Ala112-Gly224 fragment) (Mus musculus, UniProt Q9Z0L2); experiment: SPR
[2] = target: human fatty acid amide hydrolase (FAAH), amino acids 30-579, untagged (Homo sapiens, UniProt O00519); experiment: SPR
human fatty acid amide hydrolase (FAAH), amino acids 30-579, untagged, sequence (O00519 30-579): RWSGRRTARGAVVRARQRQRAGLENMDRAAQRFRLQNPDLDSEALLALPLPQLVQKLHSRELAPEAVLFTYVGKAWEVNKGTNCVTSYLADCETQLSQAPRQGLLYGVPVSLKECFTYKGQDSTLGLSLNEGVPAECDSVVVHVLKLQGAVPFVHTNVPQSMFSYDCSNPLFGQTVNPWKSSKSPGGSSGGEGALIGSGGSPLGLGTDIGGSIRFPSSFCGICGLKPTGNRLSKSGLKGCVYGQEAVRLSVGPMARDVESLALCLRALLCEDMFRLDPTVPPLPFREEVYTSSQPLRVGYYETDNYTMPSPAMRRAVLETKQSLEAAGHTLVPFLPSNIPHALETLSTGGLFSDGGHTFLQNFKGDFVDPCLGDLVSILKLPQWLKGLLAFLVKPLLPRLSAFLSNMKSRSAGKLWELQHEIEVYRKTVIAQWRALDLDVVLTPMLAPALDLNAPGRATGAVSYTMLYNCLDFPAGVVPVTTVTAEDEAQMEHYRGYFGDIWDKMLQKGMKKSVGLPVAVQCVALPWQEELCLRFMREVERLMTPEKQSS

recombinant mouse artemin protein (Ala112-Gly224 fragment), sequence (Q9Z0L2 112-224): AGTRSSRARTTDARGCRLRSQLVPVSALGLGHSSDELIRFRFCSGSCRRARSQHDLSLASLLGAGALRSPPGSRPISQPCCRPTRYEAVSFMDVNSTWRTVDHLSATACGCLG

| Binder | Kd [1] [nM] | koff [1] [s⁻¹] | kon [1] [M⁻¹ s⁻¹] | Kd [2] [nM] | koff [2] [s⁻¹] | kon [2] [M⁻¹ s⁻¹] |
| --- | --- | --- | --- | --- | --- | --- |
| LU68 llama-VHH nanobody (naive) (VHH) VHH: QVQLVESGGGLVQAGGSLRLSCAASGRTLSRYAVGWFRQAPGKEREFVAVVHWNGVSTYYAEPVKGRFTISRDNAKNTVYLQMNSLKPDDTAVYYCAAATTSYVDIYTTDYDYWGQGTQVTVSS | 456 | 0.023 | 50000 |  |  |  |
| LM41 llama-VHH nanobody (mutated) (VHH) VHH: QVQLVESGGGLVQAGGSLRLSCAASGRTLSRYAVGWFRQAPGKEREFVAVVHWNGVSTYHAEPVKGRFTISRDNAKNTVYLQMNSLKPDDTAVYYCAAATTSYVDIYTTDYDYWGQGTQVTVSS | 111 | 0.0052 | 46000 |  |  |  |
| F9 llama-VHH nanobody (affinity maturated) (VHH) VHH: QVQLVESGGGLAQAGGSLRLSCAASGRTFSDNTMAWHRQGPGKQRGLVAFITTGGRTVYTDSVKGRFIISRDNAKNTGYLQMNSLKPEDTAVYYCFVAGNWGQGTQVTVSS |  |  |  | 1.26 | 0.000214 | 169000 |
| A3 llama-VHH nanobody (original) (VHH) VHH: QVQLVESGGGLVQAGGSLRLSCAASGRTFSDNTMAWHRQGPGKQRGLVAFITTGGRTVYTDSVKGRFIISRDNAKNTGYLQMNSLKPEDTAVYYCYVAGNWGQGTQVTVSS |  |  |  | 1.56 | 5.7e-05 | 36400 |
| OD1 llama-VHH nanobody (affinity maturated) (VHH) VHH: QVQLVESGGGLVQAGGSLRLSCAASGRTFSDNTMAWHRQGPGKQRGLVAFITTGGRTVYTDSVKGRFIISRDNAKNTGFLQMNSLKPEDTAVYYCYVAGNWGQGTQVTVSS |  |  |  | 0.65 | 0.000107 | 165000 |
| LU5 llama-VHH nanobody (naive) (VHH) VHH: QVQLVESGGGLVQAGASLRLSCAASGGTLVNSSMGWFRQAPGKERDFVATINWRGDTTWYGESVKGRFSISRDNAKNTVYLQMNSLNPEDTAVYYCAVYRTRYYTGRRMMSPDEYDVWGQGTQVTVSS | 178 | 0.0088 | 49000 |  |  |  |
| LM52 llama-VHH nanobody (mutated) (VHH) VHH: QVQLVESGGGLVQAGASLRLSCAASGGTLVNSSMGWFRQAPGKERDFVATINWRGDTTWYGESVKGRFSISRDNTKNMVYLQMNSLKPEDTAVYYCAVYRTRYYTGRRMMSPDEYDVWGQGTQVTVSS | 102 | 0.004 | 39000 |  |  |  |
